Assay results published in PMC10772735, “Characterization of erythroferrone oligomerization and its impact on BMP antagonism” (The Journal of Biological Chemistry, 2023).
Values joined by “and” are separate entries in the source; they are usually repeats but may differ in a detail not shown here. Equal entries are not always repeated. Where two headings read alike, the source gives them in different places.

What was measured:
BMP6 [1] = target: BMP6 (UniProt P22004); experiment: SPR competition (BMP6 + ERFE over Alk3-Fc captured on protein A chip); settings: curve maximum near the ~300 s dotted line, RU is residual BMP6 binding to Alk3-Fc (lower RU = more competition by ERFE) …, read off a plot
[2] = target: Alk3-Fc ECD (Homo sapiens) (UniProt P36894); settings: cited from earlier work
BMP6, P22004 = target: T1, BMP6, P22004; experiment: SPR competition (BMP6 + ERFE over Alk3-Fc captured on protein A chip); settings: chain shown with the change, curve maximum near the ~300 s dotted line, read off a plot
T1 chain: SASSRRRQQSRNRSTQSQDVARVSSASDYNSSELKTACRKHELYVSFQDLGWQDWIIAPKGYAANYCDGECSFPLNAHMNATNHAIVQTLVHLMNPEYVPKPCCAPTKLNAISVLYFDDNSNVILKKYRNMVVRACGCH

[3] = target: the molecule itself; experiment: AUC; sedimentation velocity, full-length ERFE constructs, 0.5 mg/ml, 20,000 rpm, 20 °C, absorbance at 230 nm, freshly purified never frozen protein after dialysis (20 mM Hepes pH 7.5, 150 mM NaCl, 5 mM CaCl2); oligomeric states assigned qualitatively from approximate masses
[4] = target: the molecule itself; experiment: non-reducing SDS-PAGE; purified ERFE analysed by SDS-PAGE under reducing and nonreducing conditions; shows only disulfide-linked species
BMP7 = target: T2, BMP7 (UniProt P18075 293-431); experiment: cell-based or functional assay
T2 sequence (looked up): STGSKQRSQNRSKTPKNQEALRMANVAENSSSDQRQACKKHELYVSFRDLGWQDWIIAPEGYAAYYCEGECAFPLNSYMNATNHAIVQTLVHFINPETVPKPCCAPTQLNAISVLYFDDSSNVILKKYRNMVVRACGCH

GDF5 = target: T3, GDF5 (UniProt P43026 382-501); experiment: cell-based or functional assay
T3 sequence (looked up): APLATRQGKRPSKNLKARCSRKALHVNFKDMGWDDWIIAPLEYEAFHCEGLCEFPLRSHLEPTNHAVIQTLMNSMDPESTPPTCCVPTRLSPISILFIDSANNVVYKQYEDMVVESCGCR

BMP2 = BMP2 (UniProt P12643 283-396); experiment: cell-based or functional assay
BMP6 [5] = target: T4, BMP6 (UniProt P22004 375-513); experiment: cell-based or functional assay
T4 sequence (looked up): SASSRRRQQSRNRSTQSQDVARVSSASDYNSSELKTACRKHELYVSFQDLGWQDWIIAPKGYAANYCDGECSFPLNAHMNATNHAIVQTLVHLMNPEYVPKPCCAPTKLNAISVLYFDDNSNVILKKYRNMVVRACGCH

BMP6 [6] = target: T4, BMP6; experiment: cell-based or functional assay; remark: listed apart in the source
[7] = target: the molecule itself; experiment: AUC; sedimentation velocity, ΔC1Q ERFE mutants, 0.5 mg/ml, 40,000 RPM, 20 °C, absorbance at 230 nm, never frozen protein after dialysis; oligomeric states assigned qualitatively from approximate masses
BMP6 [8] = target: T4, BMP6; experiment: cell-based or functional assay; remark: listed apart in the source

Sequence of BMP2 (P12643 283-396): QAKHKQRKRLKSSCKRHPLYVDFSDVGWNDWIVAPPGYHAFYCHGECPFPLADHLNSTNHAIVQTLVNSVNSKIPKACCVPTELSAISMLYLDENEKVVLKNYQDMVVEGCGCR
Sequence of Alk3-Fc ECD (Homo sapiens) (P36894 24-152): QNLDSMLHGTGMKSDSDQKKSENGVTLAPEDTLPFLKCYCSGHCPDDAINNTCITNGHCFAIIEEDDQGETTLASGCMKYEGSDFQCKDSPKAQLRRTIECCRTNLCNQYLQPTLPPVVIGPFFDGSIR

ΔC1Q ERFE (from UniProt Q4G0M1) CLR* (center PGP in the CLR to SSS); C155S; C157S
response (BMP6 [1]; 10 nM BMP6 + 80 nM CLR*Cys*ΔC1Q ERFE): 19 RU | response (BMP6 [1]; 10 nM BMP6 + 160 nM CLR*Cys*ΔC1Q ERFE): 17 RU

BMP6 (from UniProt P22004)
Kd [2]: 62.5 nM

B1: N-terminally flag-tagged hERFE (residues 44–354), WT erythroferrone, Q4G0M1 CLR* (center PGP in the CLR to SSS); C155S; C157S; C208S (protein)
chain: PPPGNELPRGPGESRAGPAARPPEPTAERAHSVDPRDAWMLFVRQSDKGVNGKKRSRGKAKKLKFGLPGPPGPSSSQGPPGPIIPPEALLKEFQLLLKGAVRQRERAEPEPSTSGPAGPVAASLAPVSATAGEDDDDVVGDVLALLAAPLAPGPRAPRVEAAFLSRLRRDALVERRALHELGVYYLPDAEGAFRRGPGLNLTSGQYRAPVAGFYALAATLHVALGEPPRRGPPRPRDHLRLLICIQSRCQRNASLEAIMGLESSSELFTISVNGVLYLQMGQWTSVFLDNASGCSLTVRSGSHFSAVLLGV
response (BMP6, P22004; 10 nM BMP6 + 5 nM CLR*Cys* ERFE, RU is residual BMP6 binding to Alk3-Fc (lower RU = more competition by ERFE), BMP6 …): 11 RU | response (BMP6, P22004; 10 nM BMP6 + 10 nM CLR*Cys* ERFE, RU is residual BMP6 binding to Alk3-Fc (lower RU = more competition by ERFE), BMP6 …): 8.7 RU | response (BMP6, P22004; 10 nM BMP6 + 20 nM CLR*Cys* ERFE, RU is residual BMP6 binding to Alk3-Fc (lower RU = more competition by ERFE), BMP6 …): 6.2 RU | response (BMP6, P22004; 10 nM BMP6 + 40 nM CLR*Cys* ERFE, RU is residual BMP6 binding to Alk3-Fc (lower RU = more competition by ERFE), BMP6 …): 4 RU | response (BMP6, P22004; 10 nM BMP6 + 80 nM CLR*Cys* ERFE, RU is residual BMP6 binding to Alk3-Fc (lower RU = more competition by ERFE), BMP6 …): 2.3 RU | response (BMP6, P22004; 10 nM BMP6 + 160 nM CLR*Cys* ERFE, RU is residual BMP6 binding to Alk3-Fc (lower RU = more competition by ERFE) …): 1.2 RU

B2: N-terminally flag-tagged hERFE (residues 44–354), WT erythroferrone (natural protein, human, UniProt Q4G0M1 44-354, looked up)
chain: PPPGNELPRGPGESRAGPAARPPEPTAERAHSVDPRDAWMLFVRQSDKGVNGKKRSRGKAKKLKFGLPGPPGPPGPQGPPGPIIPPEALLKEFQLLLKGAVRQRERAEPEPCTCGPAGPVAASLAPVSATAGEDDDDVVGDVLALLAAPLAPGPRAPRVEAAFLCRLRRDALVERRALHELGVYYLPDAEGAFRRGPGLNLTSGQYRAPVAGFYALAATLHVALGEPPRRGPPRPRDHLRLLICIQSRCQRNASLEAIMGLESSSELFTISVNGVLYLQMGQWTSVFLDNASGCSLTVRSGSHFSAVLLGV
notes: erythroferrone (ERFE, FAM132B), human, residues 44-354; By AUC a mixture of trimer, hexamer and a little high molecular weight species; also called WT ERFE; N-Flag ERFE; not shown: FLAG, N-terminal, kept
stoichiometry N [3]: 3 and 6 | stoichiometry N [4]: 2 | IC50 of ERFE inhibition of BMP7 (2.5 nM) signalling, BMP responsive luciferase assay (BRE promoter) (BMP7): 8.9 nM | IC50 of ERFE inhibition of GDF5 (2.5 nM) signalling, BMP responsive luciferase assay (BRE promoter) (GDF5): 130 nM | IC50 of ERFE inhibition of BMP2 (2.5 nM) signalling, BMP responsive luciferase assay (BRE promoter) (BMP2): 170 nM | IC50 of ERFE inhibition of BMP6 (2.5 nM) signalling, BMP responsive luciferase assay (BRE promoter) (BMP6 [5]): 5.2 nM

B3: D90A ERFE (natural protein, human, UniProt Q4G0M1 44-354, looked up)
chain: PPPGNELPRGPGESRAGPAARPPEPTAERAHSVDPRDAWMLFVRQSAKGVNGKKRSRGKAKKLKFGLPGPPGPPGPQGPPGPIIPPEALLKEFQLLLKGAVRQRERAEPEPCTCGPAGPVAASLAPVSATAGEDDDDVVGDVLALLAAPLAPGPRAPRVEAAFLCRLRRDALVERRALHELGVYYLPDAEGAFRRGPGLNLTSGQYRAPVAGFYALAATLHVALGEPPRRGPPRPRDHLRLLICIQSRCQRNASLEAIMGLESSSELFTISVNGVLYLQMGQWTSVFLDNASGCSLTVRSGSHFSAVLLGV
IC50 of inhibition of 2.5 nM BMP6 signalling, luciferase reporter, BRITER cells (BMP6 [6]): 13 nM

B4: N94A ERFE (natural protein, human, UniProt Q4G0M1 44-354, looked up)
chain: PPPGNELPRGPGESRAGPAARPPEPTAERAHSVDPRDAWMLFVRQSDKGVAGKKRSRGKAKKLKFGLPGPPGPPGPQGPPGPIIPPEALLKEFQLLLKGAVRQRERAEPEPCTCGPAGPVAASLAPVSATAGEDDDDVVGDVLALLAAPLAPGPRAPRVEAAFLCRLRRDALVERRALHELGVYYLPDAEGAFRRGPGLNLTSGQYRAPVAGFYALAATLHVALGEPPRRGPPRPRDHLRLLICIQSRCQRNASLEAIMGLESSSELFTISVNGVLYLQMGQWTSVFLDNASGCSLTVRSGSHFSAVLLGV
IC50 of inhibition of 2.5 nM BMP6 signalling, luciferase reporter, BRITER cells (BMP6 [6]): 21 nM

B5: Cys∗ΔC1Q ERFE (domain or fragment, human, UniProt Q4G0M1 44-207, looked up)
chain: PPPGNELPRGPGESRAGPAARPPEPTAERAHSVDPRDAWMLFVRQSDKGVNGKKRSRGKAKKLKFGLPGPPGPPGPQGPPGPIIPPEALLKEFQLLLKGAVRQRERAEPEPSTSGPAGPVAASLAPVSATAGEDDDDVVGDVLALLAAPLAPGPRAPRVEAAFL
notes: erythroferrone (ERFE), human, stop codon at C208, Cys155 and Cys157 mutated to serines (C208 is not in the truncated chain); source: Expi293, transfected, purified; not shown: FLAG, N-terminal, kept
stoichiometry N [7]: 3 | IC50 of inhibition of 2.5 nM BMP6 signalling, luciferase reporter, BRITER cells (BMP6 [8]): 97 nM

B6: CLR∗Cys∗ΔC1Q ERFE (domain or fragment)
chain: PPPGNELPRGPGESRAGPAARPPEPTAERAHSVDPRDAWMLFVRQSDKGVNGKKRSRGKAKKLKFGLPGPPGPSSSQGPPGPIIPPEALLKEFQLLLKGAVRQRERAEPEPSTSGPAGPVAASLAPVSATAGEDDDDVVGDVLALLAAPLAPGPRAPRVEAAFL
IC50 of inhibition of 2.5 nM BMP6 signalling, luciferase reporter, BRITER cells (BMP6 [8]): 290 nM

B7: Cys∗ ERFE (natural protein, human, UniProt Q4G0M1 44-354, looked up)
chain: PPPGNELPRGPGESRAGPAARPPEPTAERAHSVDPRDAWMLFVRQSDKGVNGKKRSRGKAKKLKFGLPGPPGPPGPQGPPGPIIPPEALLKEFQLLLKGAVRQRERAEPEPSTSGPAGPVAASLAPVSATAGEDDDDVVGDVLALLAAPLAPGPRAPRVEAAFLSRLRRDALVERRALHELGVYYLPDAEGAFRRGPGLNLTSGQYRAPVAGFYALAATLHVALGEPPRRGPPRPRDHLRLLICIQSRCQRNASLEAIMGLESSSELFTISVNGVLYLQMGQWTSVFLDNASGCSLTVRSGSHFSAVLLGV
notes: erythroferrone (ERFE), human, residues 44-354, Cys155, 157 and 208 mutated to serines; source: some mutants αFlag resin first; not shown: FLAG, N-terminal, kept
stoichiometry N [3]: 3 | IC50 of inhibition of 2.5 nM BMP6 signalling, luciferase reporter, BRITER cells (BMP6 [8]): 8.7 nM

B8: ΔC1Q ERFE (domain or fragment, human, UniProt Q4G0M1 44-207, looked up)
chain: PPPGNELPRGPGESRAGPAARPPEPTAERAHSVDPRDAWMLFVRQSDKGVNGKKRSRGKAKKLKFGLPGPPGPPGPQGPPGPIIPPEALLKEFQLLLKGAVRQRERAEPEPCTCGPAGPVAASLAPVSATAGEDDDDVVGDVLALLAAPLAPGPRAPRVEAAFL
notes: erythroferrone (ERFE), human, construct from residue 44 with a stop codon introduced at C208, removing the entire C1Q domain; source: Expi293, transfected, purified; not shown: FLAG, N-terminal, kept
stoichiometry N [7]: 3 | stoichiometry N [4]: 2 | IC50 of inhibition of 2.5 nM BMP6 signalling, luciferase reporter, BRITER cells (BMP6 [8]): 7.8 nM

B9: CLR∗ΔC1Q ERFE (domain or fragment)
chain: PPPGNELPRGPGESRAGPAARPPEPTAERAHSVDPRDAWMLFVRQSDKGVNGKKRSRGKAKKLKFGLPGPPGPSSSQGPPGPIIPPEALLKEFQLLLKGAVRQRERAEPEPCTCGPAGPVAASLAPVSATAGEDDDDVVGDVLALLAAPLAPGPRAPRVEAAFL
stoichiometry N [7]: 2 | IC50 of inhibition of 2.5 nM BMP6 signalling, luciferase reporter, BRITER cells (BMP6 [8]): 27 nM
